According to the domain aggregation screens of Martell et al. (2025):

Test: soluble fraction after stress (log2 fold change); higher = more stays soluble; pooled small domains, quantitative proteomics
Settings: stress: 50 degC
In short: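 Pooled custom libraries of small protein domains were measured in a high-throughput format, with quantitative proteomics as the read-out. Each library was stressed at 50°C. Aggregation propensity is given as the base-two logarithm of the fold change in how much of each protein stays soluble after the stress. Higher values mean a larger share of the protein remains in solution.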

| Sequence | soluble fraction (log2) |
| --- | --- |
| HMNTISEADAKRIALERAGLTAADYVKVDYDQDDNEYEVEMRSGNTEYEVKISGSTGAVLEYDSETD | 0.149 |
| HMNTISTLEITTKKDIRILDESELLKSKSSKNNIFNYLLASGDFNLLKDKLNEIDEFSDEIISYQLN | -0.611 |
| HMNTKQRTAVMRILKQSSDPVSADDVFAALKDEYPSLALSTVYRNLERFADESMVKKDVWSDGIVRYSLAD | -0.189 |
| HMNTLGTNIAKLRESQKLTQEELGKLSGVSRVSIYKIETGQSTPRDTTLQNIAEALHTTPSALRS | 0.142 |
| HMNTLLYAPKVSPNPFTPNADGINDVVNISYKLLRVISAVPISVEVFDLSGRLIKTLYSGVDPLGEY | 0.158 |
| HMNTLPASVQPKKGRLYAVIQTKENGKSKPVWRSLGLPEGSNKSKVNKAFREVVKQFEEEYAERLAR | 0.0511 |
| HMNTLPTDELMKYGIINEDLSFSKKLNADDIQKFLQGYTIVADNDKNRATFQLTENNTKLKVIFLER | -0.438 |
| HMNTLRFPEGTPEKDRMSIILASYNSGIGHVNDARRLARLNGEDPNSWEVVARYLQLKAQPEYYESEAVK | -0.0728 |
| HMNTPAENFDKAVEKYKSTNSATEKDAAFKVIEDEWIKLSDEEKKERQDEYDSIFESEGDRV | 0.126 |
| HMNTQGWEIFEGRITTADTDLNPSGWIRIDGQRIFVISDAGFIDKGKEVSILSVDGNRVLVRK | -0.641 |
| HMNTSMIEHMDKSTFIRFVFTNPVTHDQAVAKLMEKHMWFSTEEKAEAEIDKLLNKTNSLIESGGKLTW | 0.0337 |
| HMNTTLQLDTILRLEKNAHLLENFVRAGFTDSELGKLTDADLLQIGVPKIGDRRRLLAALAERAH | -0.589 |
| HMNTVSPAVSAQLRQELGGELNNANFQQLQQYLQAGQRDEAIVYLTSLGIESPRAVSIVNNAMDQIG | 0.124 |
| HMNVDIVEITKNSSPNQISKVIDIGAIQIVEDLMSFGIMKAIDTPLEDSEIEQLLEKYNLIVDLIE | -2.33 |
| HMNVDSIPGKSGIVTQGIDNLKAMGRVTVNGMEWTARSKDGSLIEEGKVVRVYGVEGVKLIVEED | -0.0306 |
| HMNVDSLPGEKAVVIKTIDNLRGTGQAVVNGLEWSAKSKDETIIDEGKVVRIVAVEGVKLVVEEE | 0.0762 |
| HMNVEALIGREGRVTDKIEANGYGRVKVDGDSWKAKSANGAEIRQNTDVRILSIDSVIITVEP | -0.379 |
| HMNVESLVGKQVIVSETIDNLKATGQVKVNGLEWTARAADETDIIPQGTEVTINEVSGVKLIVSR | 0.241 |
| HMNVESMVGKQGKVVVEIDNISAKGMIKVDGMEWTARSVDGEIIPKDSLVAVVSVEGVKAMVRKAE | 0.163 |

| Sequence | soluble fraction (log2) |
| --- | --- |
| HMNVGKRLKSLREKYKFSLEEVAKKIKSSAGAISRYENNERKINSESLIRLSNLYNVSPEYILYG | 0.0449 |
| HMNVKQALLELMQRKPELTGSAIARAIGYSPAVISQYLKDGYPGDVVKLTTLIGDFIRRIDEKERS | -0.182 |
| HMNVKVYATIDGDNFKVSGLKPGSNVRVYSSNGSAVFEKKAGDSEMIIPAGAWTKGIYVISADDQSIKVT | -0.109 |
| HMNVLGQTAIVRSLRLDATFGEVLLADGGAGLIFKARTHGDETFKKGDRVVLLEYLKDQHAYRVISETDFL | -1.94 |
| HMNVLLGISELSHATGVTPAQLRYWVSQGYIKNYGSNKKNKFSLETVFMVRSIKIFQNQGYTLSASAKRAA | 0.0163 |
| HMNVNFVQANLANLPNIQAIYQKGNEMLNDMKRGEAREIDEAYSRVDNGVGTEKDFKVLLSFRDKIIAAMQ | 0.362 |
| HMNVNSMIGKEGRVIEDIDNFNETGRIIVDGMEWTARAVNEQSITSGQKVVIREIQGVKAMVVPM | 0.187 |
| HMNVNTNTILKSLMETYPDSTVFKKAEIVSIANSLGFKKSDYSPLTSTDNRTDVRGQYDLSAVIIPMRESN | -0.13 |
| HMNVPYEMVTQNGEVFYKYKVQPGEGVFAVSRTFSVSVAEILRVNPEANKGLKNGQVLLIPVPKDMIA | 0.0163 |
| HMNVVGAKGRIIKISSSEEKMAVAEIEGHGEWNIRTNSEIELFVGKSVEVIEMKGNYLLVNQI | -0.0624 |
| HMNVWESVDLRQEQHEAKRRLILKQAALLFADRGFHETTIDQIAEALNVTKPTIYYYIESKEDLLYQVA | -0.0821 |
| HMNWQLITDPKELRELVQKTIADNEAGTSRLREGDMGPLEFLTGIIMKKTRGLADPTMVKALLKEELNI | 0.132 |
| HMNYEFLEKIGFSSNEAKVYGTLIKHKVLNGYEIAKLSGVARSLVYEVINRLVAKGAVIRIDGEPNFYKP | -1.8 |
| HMNYHDTLSYLMDAFGGADNLQKLLGVGPSALSNYRRREHLPLNQARKLSNIAPEFGFNLDPYTLKISVID | -1.57 |
| HMNYKLESYLKKVDDQLNFIPVSDKADILSELKNTFYERLLNGQTEEEILDEMESPRELALSYMSES | 0.0578 |
| HMNYTYTVPEGIRYLRADKALALAFPDHSRTALQRAFDSGLVTLRGVAIKRDQSVTALDTLEFAMPDI | -0.81 |
| HMNYVFVLNEHGVRQTSYVVGLHADTLEKTEKLAKQTYPTSTIISGDSEMQSQFISGKAYVNGEFVDP | -0.471 |
| HMPAFWILAVLAGGRRHGYQIMREAALSSEGLVTLKPTTLYAALERLERDGAIQQDGEEIVDGRVRRYYRI | 0.259 |
| HMPAKDAEFTAFVRSATPTLTRTAYLLTGDRETASDLVQEAFVRTYLAWRRVRPEEATAYTRRVLVN | 0.0368 |
